In article PMC4537050 (2015):

Biological target: T1, Human recombinant FGF8b (fibroblast growth factor-8b) (human)
T1 chain: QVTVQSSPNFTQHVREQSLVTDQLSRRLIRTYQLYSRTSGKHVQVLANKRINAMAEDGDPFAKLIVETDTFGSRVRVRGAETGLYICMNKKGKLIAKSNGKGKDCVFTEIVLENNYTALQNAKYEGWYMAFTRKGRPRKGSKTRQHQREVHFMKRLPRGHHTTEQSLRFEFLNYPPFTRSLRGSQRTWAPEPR
Assay: SPR
For Ac-ARGCA-NH2 [Ac-ARGCA-NH2], the Kd was over 3000 µM. Work on Ac-GRPCG-NH2 [Ac-GRPCG-NH2] yielded a Kd of over 3000 µM. Ac-ARACA-NH2 [Ac-ARACA-NH2] was tested, and the Kd was over 3000 µM. Ac-ARPCG-NH2 [Ac-ARPCG-NH2] showed a Kd of 1900 µM. With Ac-APCRA-NH2 [Ac-APCRA-NH2, partially scrambled peptide] the Kd was over 3000 µM. H-ARPCA-NH2 [H-ARPCA-NH2, non-acetylated peptide] gave a Kd of 2900 µM. Binder Ac-ARPMA-NH2 [Ac-ARPMA-NH2] has a Kd of over 3000 µM.
